{"source": "patent US6713606", "molecular_target": "T1, purified human Lysn-Plasminogen, P00747", "T1 chain": "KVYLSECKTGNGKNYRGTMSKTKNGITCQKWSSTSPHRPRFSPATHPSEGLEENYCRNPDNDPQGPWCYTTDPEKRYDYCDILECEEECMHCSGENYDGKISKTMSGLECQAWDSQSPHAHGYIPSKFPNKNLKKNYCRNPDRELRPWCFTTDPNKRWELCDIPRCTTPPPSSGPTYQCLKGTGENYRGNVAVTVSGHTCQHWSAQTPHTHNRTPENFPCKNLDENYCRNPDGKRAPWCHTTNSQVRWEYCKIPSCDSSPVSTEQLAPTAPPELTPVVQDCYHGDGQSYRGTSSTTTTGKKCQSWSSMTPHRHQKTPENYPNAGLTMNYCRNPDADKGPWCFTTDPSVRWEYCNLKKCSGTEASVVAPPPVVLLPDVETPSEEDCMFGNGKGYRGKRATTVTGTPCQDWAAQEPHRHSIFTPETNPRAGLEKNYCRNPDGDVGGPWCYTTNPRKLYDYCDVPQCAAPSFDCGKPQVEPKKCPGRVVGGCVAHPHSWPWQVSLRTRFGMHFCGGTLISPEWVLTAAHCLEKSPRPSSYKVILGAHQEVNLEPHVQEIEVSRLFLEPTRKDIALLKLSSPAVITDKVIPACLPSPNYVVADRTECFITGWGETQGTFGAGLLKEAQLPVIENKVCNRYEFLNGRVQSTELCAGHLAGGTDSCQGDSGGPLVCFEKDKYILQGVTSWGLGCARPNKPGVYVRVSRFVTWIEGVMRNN", "data": [{"protein": "thiolated streptokinase (protein) IAGPEWLLDRPSVNNSQLVVSVAGTVEGTNQDISLKFFEIDLTSRPAHGGKTEQGLSPKSKPFATDSGAMSHKLEKADLLKAIQEQLIANVHSNDDYFEVIDFASDATITDRNGKVYFADKDGSVTLPTQPVQEFLLSGHVRVRPYKEKPIQNQAKSVDVEYTVQFTPLNPDDDFRPGLKDTKLLKTLAIGDTITSQELLAQAQSILNKNHPGYTIYERDSSIVTHDNDIFRTILPMDQEFTYRVKNREQAYRINKKSGLNEEINNTDLISEKYYVLKKGEKPYDPFDRSHLKLFTIKYVDVDTNELLKSEQLLTASERNLDFRDLYDPRDKAKLLYNNLDAFGIMDYTLTGKVEDNHDDTNRIITVYMGKRPEGENASYHLAYDKDRYTEEEREVYSYLRYTGTPIPDNPNDK", "values": [{"measurement": "plasmin generation in the plasminogen activation assay (S-2251 substrate units)", "value": "thiolated SK (1 nM), generated plasmin at a nearly linear of 4225 SU/ml"}]}]}
